Results taken from patent US20240301071A1.

Key:
[1] = target: T1, human SIRPA on human macrophages (primary monocyte-derived macrophages; U937 line) (human), P78324; test: cell-based or functional assay
[2] = target: huSIPRA v.1 CAA71403.1 (human) (UniProt P78324); test: ELISA, plate coated with tagged SIRPA at 1 ug/mL
[3] = target: SIRPB1-His iso. 3 (human) (UniProt Q5TFQ8); test: ELISA, plate coated with SIRP protein
[4] = target: SIRPA v2 (CAA71403.1) (human) (UniProt P78324); test: ELISA, plate coated with SIRP protein
SIRPB1-Fc iso. 3 (human) = SIRPB1-Fc iso. 3 (human) (UniProt Q5TFQ8); test: ELISA, plate coated with SIRP protein
SIRPB1-Fc iso. 3 (human), sequence (Q5TFQ8 30-371): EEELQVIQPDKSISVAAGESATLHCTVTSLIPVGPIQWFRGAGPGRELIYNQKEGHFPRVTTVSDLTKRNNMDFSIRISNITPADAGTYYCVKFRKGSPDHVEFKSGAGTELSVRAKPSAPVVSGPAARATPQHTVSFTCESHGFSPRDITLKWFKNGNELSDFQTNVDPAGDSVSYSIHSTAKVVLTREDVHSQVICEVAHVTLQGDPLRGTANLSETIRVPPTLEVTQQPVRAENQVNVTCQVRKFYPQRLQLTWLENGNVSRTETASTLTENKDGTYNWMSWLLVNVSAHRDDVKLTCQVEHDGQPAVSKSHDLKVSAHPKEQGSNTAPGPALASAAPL

[5] = target: T1, human SIRPA on human macrophages …
[6] = target: human SIRPA on human macrophages (primary monocyte-derived macrophages; U937 line) (human) (UniProt P78324); test: cell-based or functional assay
human SIRPA on human macrophages (primary monocyte-derived macrophages; U937 line) (human), sequence (P78324 31-504): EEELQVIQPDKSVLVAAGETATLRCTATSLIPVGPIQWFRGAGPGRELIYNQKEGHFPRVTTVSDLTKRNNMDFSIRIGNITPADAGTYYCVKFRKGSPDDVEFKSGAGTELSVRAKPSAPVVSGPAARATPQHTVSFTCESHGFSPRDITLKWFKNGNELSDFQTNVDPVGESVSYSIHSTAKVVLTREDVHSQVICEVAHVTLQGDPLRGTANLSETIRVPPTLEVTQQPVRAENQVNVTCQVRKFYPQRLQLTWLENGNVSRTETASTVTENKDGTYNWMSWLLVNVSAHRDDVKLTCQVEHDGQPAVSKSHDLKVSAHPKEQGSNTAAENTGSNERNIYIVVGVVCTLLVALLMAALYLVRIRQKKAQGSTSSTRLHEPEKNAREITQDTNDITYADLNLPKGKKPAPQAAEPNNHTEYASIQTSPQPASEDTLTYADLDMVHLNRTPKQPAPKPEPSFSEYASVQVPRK

T1 sequence (P78324 31-504): as above
SIRPB1-His iso. 3 (human), sequence (Q5TFQ8 30-371): as the sequence (Q5TFQ8 30-371) above

Binder | Phagocytosis, fold increase over baseline activity [1] | SIRPA IC50 (nM), downregulation on U937 cells [1] | SIRPA IC50 (nM), downregulation on human primary macrophages [1] | SIRPA Max % DR, U937 cells [1] | SIRPA Max % DR, human primary macrophages [1] | SIRPA downregulation on primary human macrophages, Donor 413 (flow cytometry) [1] | SIRPA downregulation on primary human macrophages, Donor 414 (flow cytometry) [1] | EC50 [3] | EC50 [4] | EC50 (SIRPB1-Fc iso. 3 (human)) | other results
chimeric anti-SIRPA antibody 3F9 huIgG1 (antibody, V domains shown) VH: EVKLVESGGGLVKPGGSLKLSCAASGFTFSSYAMSWVRQTPEKRLEWVATISDYGGSYTYYPDSVKGRFTISRDNAKYTLYLQMSSLRSEDTALYYCARPPYDDYYGGFAYWGQGTLVTVSA VL: DIVLTQSPASLAVSLGQRATISCRASKSVSSSGYSYMHWYQQKPGQPPKLLIYLASNLESGVPARFSGSGSGTDFTLNIHPVEEEDAATYYCQHNRELPCTFGGGTKLEIK | 1.77 fold | 0.804 nM | 0.172 nM | 68% | 90% | – | – | – | – | – | –
anti-SIRPA antibody 18D5 (antibody, from another filing, V domains shown) VH: QVQLQQPGAELVRPGSSVKLSCKASGYTFTSYWVHWVKQRPIQGLEWIGNIDPSDSDTHYNQKFKDKASLTVDKSSSTAYMQLSSLTFEDSAVYYCVRGGTGTMAWFAYWGQGTLVTVSA VL: DVVMTQTPLSLPVSLGDQASISCRSSQSLVHSYGNTYLYWYLQKPGQSPKLLIYRVSNRFSGVPDRFSGSGSGTDFTLKISRVEAEDLGVYFCFQGTHVPYTFGSGTKLEIKR | – | – | – | – | – | – | – | – | – | – | EC50 (nM), phagocytosis of A375 cells by primary human macrophages [6]: 2.15 nM; Max, fold increase in phagocytosis over baseline activity [6]: 1.06 fold
anti-SIRPA antibody 9C2 (antibody, V domains shown) VH: EFQLQQSGAELVKPGASVKISCKASGYSLTGYNMNWVKQSRGKSLEWIGNINPHYGSSTYNQNFKDKATLTVDKSSSAAYMQFNSLTSEDSAVYYCAREGYDGVFDYWGQGTTLTVSS VL: QIVLSQSPAILSASPGEKVTMTCRASSSVSYMHWYQQKPGSSPKPWIYVTSNLASGVPTRFSGSGSGTSYSLTISRVEAEDAATYYCQQWSSNPRTFGGGTKLEIK | – | – | – | – | – | – | – | 0.425 nM | 0.358 nM | 0.382 nM | –

Second part, led by results:

Phagocytosis, fold increase over baseline activity [1] | SIRPA IC50 (nM), downregulation on U937 cells [1] | SIRPA IC50 (nM), downregulation on human primary macrophages [1] | SIRPA Max % DR, U937 cells [1] | SIRPA Max % DR, human primary macrophages [1] | SIRPA downregulation on primary human macrophages, Donor 413 (flow cytometry) [1] | SIRPA downregulation on primary human macrophages, Donor 414 (flow cytometry) [1] | EC50 [3] | EC50 [4] | EC50 (SIRPB1-Fc iso. 3 (human)) | Binder | other results
1.51 fold | 0.105 nM | 0.00905 nM | 75% | 89% | 90% | 85% | 0.435 nM | 0.353 nM | 0.319 nM | mouse anti-SIRPA antibody m3F9 (antibody, mouse IgG1, V domains shown) VH: EVKLVESGGGLVKPGGSLKLSCAASGFTFSSYAMSWVRQTPEKRLEWVATISDYGGSYTYYPDSVKGRFTISRDNAKYTLYLQMSSLRSEDTALYYCARPPYDDYYGGFAYWGQGTLVTVSA VL: DIVLTQSPASLAVSLGQRATISCRASKSVSSSGYSYMHWYQQKPGQPPKLLIYLASNLESGVPARFSGSGSGTDFTLNIHPVEEEDAATYYCQHNRELPCTFGGGTKLEIK | EC50 [2]: 0.789 nM; IC50 (read off the curve), SIRPA downregulation on primary human macrophages, Dnr. 414 [5]: 0.04 nM
– | – | – | – | – | 70% | 75% | – | – | – | deglycosylated m3F9 anti-SIRPA antibody (antibody, mouse IgG1, V domains shown, here or on the partner: Fc glycan on Asn297 removed enzymatically with EndoS) VH: EVKLVESGGGLVKPGGSLKLSCAASGFTFSSYAMSWVRQTPEKRLEWVATISDYGGSYTYYPDSVKGRFTISRDNAKYTLYLQMSSLRSEDTALYYCARPPYDDYYGGFAYWGQGTLVTVSA VL: DIVLTQSPASLAVSLGQRATISCRASKSVSSSGYSYMHWYQQKPGQPPKLLIYLASNLESGVPARFSGSGSGTDFTLNIHPVEEEDAATYYCQHNRELPCTFGGGTKLEIK | IC50 (read off the curve), SIRPA downregulation on primary human macrophages, Dnr. 413 [5]: 0.07 nM
